Measured values published in paper PMC10572602, “Molecular Mechanism of STIL Coiled-Coil Domain Oligomerization” (International Journal of Molecular Sciences, 2023).
No end group written: not given here.

B1: STIL CCD_(718–749) A722L Q729L (peptide)
peptide: LSPDLYRFLTELDRQLRLLQAQIQRLLEAQSL-NH2
notes: STIL coiled-coil domain, residues 718-749, with A722L and Q729L; also called double mutant; source: synthetic peptide (Fmoc-SPPS on rink amide, RP-HPLC purified)
B2: STIL CCD_(718–749) A722L (peptide)
peptide: LSPDLYRFLTEQDRQLRLLQAQIQRLLEAQSL-NH2
notes: STIL coiled-coil domain, residues 718-749, with A722L; source: synthetic peptide (Fmoc-SPPS on rink amide, RP-HPLC purified)
B3: STIL CCD_(718–749) Q729L (peptide)
peptide: LSPDAYRFLTELDRQLRLLQAQIQRLLEAQSL-NH2
notes: STIL coiled-coil domain, residues 718-749, with Q729L; also called STIL CCD Q729L; source: synthetic peptide (Fmoc-SPPS on rink amide, RP-HPLC purified)

Legend:
[1] = molecular target: the molecule itself; test: AUC; sedimentation velocity, 100 µM peptide, c(s) distribution; 20 °C, sodium phosphate pH 6.8 with NaCl
[2] = molecular target: the molecule itself; test: AUC; sedimentation velocity, 10 µM peptide, c(s) distribution; 20 °C, 25 mM sodium phosphate pH 6.8, ionic strength 154 mM (NaCl)
[3] = molecular target: the molecule itself; test: AUC; sedimentation equilibrium, starting concentrations 5, 10 and 20 µM, unlabelled peptide, no DMSO; 20 °C, sodium phosphate pH 6.8 with NaCl; fitted to a single ideal species (N) and, for the WT, to a dimer-tetramer model (apparent KD: tetramer to dimers)

Row | Protein | stoichiometry N [1] | stoichiometry N [2] | stoichiometry N [3]
1 | B1 | 4 | 4.22 | 3.24 ± 0.03
2 | B2 | 4 | 3.92 | 3.51 ± 0.02
3 | B3 | 4 | 3.56 | 3.47 ± 0.05
